Results reported in US20220332795A1 (ARO BIOTHERAPEUTICS, published 2022).

Tests used:
[1] = target: T1, recombinant biotinylated human CD71 extracellular domain (human, UniProt P02786 89-760, biotinylated); experiment: solution ELISA, signal ratio to HSA
T1 construct: extracellular domain; also called hCD71; huCD71 ECD

CD71 apical domain [2] = target: T2, CD71 apical domain (UniProt P02786 189-383, limits assumed); experiment: solution ELISA, signal ratio to HSA
T2 construct: domain: Apical domain

[3] = target: T1, recombinant biotinylated human CD71 …; experiment: solution ELISA
CD71 apical domain [4] = target: T2, CD71 apical domain; experiment: solution ELISA

T1 sequence (P02786 other isoform, or with tags, fused parts or gaps): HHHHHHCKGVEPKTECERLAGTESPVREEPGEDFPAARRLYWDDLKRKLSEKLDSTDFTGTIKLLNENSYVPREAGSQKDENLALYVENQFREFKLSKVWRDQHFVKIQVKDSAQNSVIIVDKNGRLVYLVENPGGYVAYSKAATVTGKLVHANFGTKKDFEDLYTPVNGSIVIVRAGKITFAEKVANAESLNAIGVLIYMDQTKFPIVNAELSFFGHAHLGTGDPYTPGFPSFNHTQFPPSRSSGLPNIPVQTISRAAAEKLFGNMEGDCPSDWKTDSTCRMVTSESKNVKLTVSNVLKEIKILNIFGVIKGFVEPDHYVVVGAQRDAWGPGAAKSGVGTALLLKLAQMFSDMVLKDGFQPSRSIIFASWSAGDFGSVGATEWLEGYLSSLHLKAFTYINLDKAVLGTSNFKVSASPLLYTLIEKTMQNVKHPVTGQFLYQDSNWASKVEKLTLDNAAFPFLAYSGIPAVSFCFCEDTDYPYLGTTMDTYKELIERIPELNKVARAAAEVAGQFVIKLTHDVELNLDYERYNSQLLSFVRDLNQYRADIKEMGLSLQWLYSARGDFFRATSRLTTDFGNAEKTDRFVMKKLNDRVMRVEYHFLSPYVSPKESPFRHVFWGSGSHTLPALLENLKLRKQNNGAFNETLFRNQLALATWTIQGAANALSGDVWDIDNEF
T2 sequence (P02786 189-383 limits assumed): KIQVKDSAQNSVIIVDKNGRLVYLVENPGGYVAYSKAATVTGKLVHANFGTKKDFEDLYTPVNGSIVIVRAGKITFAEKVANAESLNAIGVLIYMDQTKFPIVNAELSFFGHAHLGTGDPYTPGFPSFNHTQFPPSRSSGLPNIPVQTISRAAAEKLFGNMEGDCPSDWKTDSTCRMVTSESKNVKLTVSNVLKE

Binder	hCD71:HSA [1]	apical domain:HSA (CD71 apical domain [2])	hCD71, RLU [3] [RLU]	Apical domain, RLU (CD71 apical domain [4]) [RLU]
SEQ ID NO 149 (designed binder, FN3 domain) MLPAPKNLVVSRVTEDSARLSWTAPDAAFDSFYIAYAEPRPDGEAIQLWVPGSERSYDLTGLKPGTEYSVLIHGVKGGLLSSPLSAIFTT	91.2	361	1.56e+06	6.16e+06
SEQ ID NO 159 (designed binder, FN3 domain) MLPAPKNLVVSRVTEDSARLSWTAPDAAFDSFYIAYAEPRPDGEAIYLKVPGSERSYDLTGLKPGTEYSVLIHGVKGGLLSSPLVAHFTT	14.4	345	185000	4.43e+06
SEQ ID NO 156 (designed binder, FN3 domain) MLPAPKNLVVSRVTEDSARLSWTAPDAAFDSFYIAYAEPRPDGEAIFLQVPGSERSYDLTGLKPGTEYSVLIHGVKGGLLSSPLAAVFTT	104	286	2.46e+06	6.71e+06
SEQ ID NO 154 (designed binder, FN3 domain) MLPAPKNLVVSRVTEDSARLSWTAPDAAFDSFYIAYAEPRPDGEAIGLWVPGSERSYDLTGLKPGTEYSVLIHGVKGGLLSSPLIAHFTT	33.7	239	779000	5.54e+06
SEQ ID NO 150 (designed binder, FN3 domain) MLPAPKNLVVSRVTEDSARLSRTAPDAAFDSFYIAYAEPRPDGEAIVLIVPGSERSYDLTGLKPGTEYSVLIHGVKGGLLSSPLSAIFTT	12.7	30.8	1.3e+06	3.16e+06
SEQ ID NO 157 (designed binder, FN3 domain) MLPAPKNLVVSRVTEDSARLSWTAPDAAFDSFYIAYAEPRPDGEAILLHVPGSERSYDLTGLKPGTEYSVLIHGVKGGLLSSPLSAISTT	94.9	194	3.61e+06	7.39e+06
SEQ ID NO 153 (designed binder, FN3 domain) MLPAPKNLVVSRVTEDSARLSWTAPDAAFDSFYIAYAEPRPDGEAIALHVPGSERSYDLTGLKPGTEYSVLIHGVKGGLLSSPLSAIFTT	16	186	339000	3.96e+06
SEQ ID NO 155 (designed binder, FN3 domain) MLPAPKNLVVSRVTEDSARLSWTAPDAAFDSFYIAYAEPRPDGEAIWLVVPGSERSYDLTGLKPGTEYSVLIHGVKGGLLSSPLHARFTT	27.7	263	513000	4.86e+06
SEQ ID NO 158 (designed binder, FN3 domain) MLPAPKNLVVSRVTEDSARLSWTAPDAAFDSFYIAYAEPRPDGEAIILQVPGSERSYDLTGLKPGTEYSVLIHGVKGGLLSSPLSAVFTT	312	500	4.99e+06	8.01e+06
SEQ ID NO 152 (designed binder, FN3 domain) MLPAPKNLVVSRVTEDSARLSWTAPDAAFDSFYIAYAEPRPDGEAITLDVPGSERSYDLTGLKPGTEYSVLIHGVKGGLLSSPLYAFFTT	55.4	359	764000	4.96e+06
